US20150104448A1 (TRUE NORTH THERAPEUTICS, published 2015)

T1: Inactive-C1s (Homo sapiens, UniProt P09871)
T1 construct: proenzyme (pro-C1s); also called pro-C1s
T1 sequence (single chain, looked up): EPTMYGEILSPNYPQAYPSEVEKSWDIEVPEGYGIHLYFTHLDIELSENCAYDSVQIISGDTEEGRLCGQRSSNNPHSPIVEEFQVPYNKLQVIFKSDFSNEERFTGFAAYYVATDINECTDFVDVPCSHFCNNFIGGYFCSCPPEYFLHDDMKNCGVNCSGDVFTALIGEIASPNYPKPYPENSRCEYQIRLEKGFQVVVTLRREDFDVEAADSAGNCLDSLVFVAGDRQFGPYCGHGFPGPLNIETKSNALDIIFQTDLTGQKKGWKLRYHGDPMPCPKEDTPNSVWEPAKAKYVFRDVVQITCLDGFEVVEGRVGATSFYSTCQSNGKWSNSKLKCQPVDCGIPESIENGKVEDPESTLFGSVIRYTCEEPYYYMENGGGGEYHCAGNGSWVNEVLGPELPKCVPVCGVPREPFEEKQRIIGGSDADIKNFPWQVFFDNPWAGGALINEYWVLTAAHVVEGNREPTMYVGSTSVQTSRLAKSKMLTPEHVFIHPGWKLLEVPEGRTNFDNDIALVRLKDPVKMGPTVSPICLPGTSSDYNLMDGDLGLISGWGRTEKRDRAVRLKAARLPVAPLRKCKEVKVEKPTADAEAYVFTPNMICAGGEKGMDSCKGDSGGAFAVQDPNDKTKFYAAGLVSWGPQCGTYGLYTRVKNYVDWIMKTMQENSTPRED

T2: purified human activated C1s protein, two-chain form (Homo sapiens, UniProt P09871 16-688)
T2 construct: Also used here for C1s acting in human serum assays; also called human C1s; active C1s
T2 sequence: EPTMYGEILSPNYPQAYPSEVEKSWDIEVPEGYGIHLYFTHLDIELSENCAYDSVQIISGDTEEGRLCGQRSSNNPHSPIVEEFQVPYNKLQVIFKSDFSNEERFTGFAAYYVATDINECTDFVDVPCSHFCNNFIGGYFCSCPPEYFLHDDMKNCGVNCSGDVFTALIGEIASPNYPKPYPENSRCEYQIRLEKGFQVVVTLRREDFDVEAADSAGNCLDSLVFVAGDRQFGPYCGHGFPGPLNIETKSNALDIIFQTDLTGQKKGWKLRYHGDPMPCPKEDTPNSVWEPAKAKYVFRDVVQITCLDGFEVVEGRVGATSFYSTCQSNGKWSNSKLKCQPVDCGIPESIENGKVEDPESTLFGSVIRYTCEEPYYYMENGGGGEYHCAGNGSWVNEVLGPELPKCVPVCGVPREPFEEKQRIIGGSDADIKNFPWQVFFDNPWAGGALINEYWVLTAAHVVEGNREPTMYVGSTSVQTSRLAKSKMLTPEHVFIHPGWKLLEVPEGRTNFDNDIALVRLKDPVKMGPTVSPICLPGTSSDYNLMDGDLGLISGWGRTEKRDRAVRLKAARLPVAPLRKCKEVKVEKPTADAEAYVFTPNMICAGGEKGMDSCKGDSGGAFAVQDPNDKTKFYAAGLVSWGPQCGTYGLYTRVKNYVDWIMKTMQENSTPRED


What was measured:
[1] = biological target: T1, Inactive-C1s; assay: kinetic binding measurement, method not stated; Table 10, pro-C1s
[2] = biological target: T2, purified human activated C1s protein, …; assay: kinetic binding measurement, method not stated; Table 9, activated C1s

Row | Binder | Kd [1] | koff [1] | kon [1] | Kd [2] | koff [2] | kon [2]
1 | VH1/Vk2 (antibody, V domains shown, member of group m7; also called VH1/Vκ2; VH variant 1 + Vk variant 2) VH: EVMLVESGGGLVKPGGSLRLSCAASGFTFSNYAMSWVRQAPGKGLEWVATISSGGSHTYYLDSVKGRFTISRDNSKDTLYLQMSSLRAEDTALYYCARLFTGYAMDYWGQGTSVTVSS VL: QIVLTQSPATLSLSPGERATMSCTASSSVSSSYLHWYQQKPGKAPKLWIYSTSNLASGVPSRFSGSGSGTDYTLTISSLQPEDFATYYCHQYYRLPPITFGQGTKLEIK | 0.229 nM | 0.000249 s⁻¹ | 1.09e+06 M⁻¹ s⁻¹ | 0.262 nM | 0.000274 s⁻¹ | 1.05e+06 M⁻¹ s⁻¹
2 | VH3/Vk2 (antibody, V domains shown, member of group m7; also called VH3/Vκ2; VH variant 3 + Vk variant 2) VH: EVMLVESGGGLVKPGGSLRLSCAASGFTFSNYAMSWVRQAPGKGLEWVATISSGGSHTYYLDSVKGRFTISRDNSKDTLYLQMSSLRAEDTALYYCARLFTGYAMDYWGQGTSVTVSS VL: QIVLTQSPATLSLSPGERATMSCTASSSVSSSYLHWYQQKPGKAPKLWIYSTSNLASGVPSRFSGSGSGTDYTLTISSLQPEDFATYYCHQYYRLPPITFGQGTKLEIK | 0.291 nM | 0.000315 s⁻¹ | 1.08e+06 M⁻¹ s⁻¹ | 0.274 nM | 0.000311 s⁻¹ | 1.13e+06 M⁻¹ s⁻¹
3 | VH1/Vk3 (antibody, V domains shown, member of group m7; also called VH1/Vκ3; VH variant 1 + Vk variant 3) VH: EVMLVESGGGLVKPGGSLRLSCAASGFTFSNYAMSWVRQAPGKGLEWVATISSGGSHTYYLDSVKGRFTISRDNSKDTLYLQMSSLRAEDTALYYCARLFTGYAMDYWGQGTSVTVSS VL: QIVLTQSPATLSLSPGERATLSCTASSSVSSSYLHWYQQKPGKAPKLWIYSTSNLASGVPSRFSGSGSGTDYTLTISSLQPEDFATYYCHQYYRLPPITFGQGTKLEIK | 0.303 nM | 0.000285 s⁻¹ | 941000 M⁻¹ s⁻¹ | 0.376 nM | 0.000343 s⁻¹ | 914000 M⁻¹ s⁻¹
4 | VH3/Vk3 (antibody, V domains shown, member of group m7; also called VH3/Vκ3; VH variant 3 + Vk variant 3) VH: EVMLVESGGGLVKPGGSLRLSCAASGFTFSNYAMSWVRQAPGKGLEWVATISSGGSHTYYLDSVKGRFTISRDNSKDTLYLQMSSLRAEDTALYYCARLFTGYAMDYWGQGTSVTVSS VL: QIVLTQSPATLSLSPGERATLSCTASSSVSSSYLHWYQQKPGKAPKLWIYSTSNLASGVPSRFSGSGSGTDYTLTISSLQPEDFATYYCHQYYRLPPITFGQGTKLEIK | 0.331 nM | 0.000351 s⁻¹ | 1.06e+06 M⁻¹ s⁻¹ | 0.335 nM | 0.00036 s⁻¹ | 1.08e+06 M⁻¹ s⁻¹
5 | VH2/Vk3 (antibody, V domains shown, member of group m7; also called VH2/Vκ3; VH variant 2 + Vk variant 3) VH: EVMLVESGGGLVKPGGSLRLSCAASGFTFSNYAMSWVRQAPGKGLEWVATISSGGSHTYYLDSVKGRFTISRDNSKDTLYLQMNSLRAEDTALYYCARLFTGYAMDYWGQGTLVTVSS VL: QIVLTQSPATLSLSPGERATLSCTASSSVSSSYLHWYQQKPGKAPKLWIYSTSNLASGVPSRFSGSGSGTDYTLTISSLQPEDFATYYCHQYYRLPPITFGQGTKLEIK | 0.284 nM | 0.000275 s⁻¹ | 968000 M⁻¹ s⁻¹ | 0.296 nM | 0.000281 s⁻¹ | 948000 M⁻¹ s⁻¹
6 | VH4/Vk1 (antibody, V domains shown, member of group m7; also called VH4/Vκ1; VH variant 4 + Vk variant 1) VH: EVQLVESGGGLVKPGGSLRLSCAASGFTFSNYAMSWVRQAPGKGLEWVATISSGGSHTYYLDSVKGRFTISRDNSKNTLYLQMNSLRAEDTALYYCARLFTGYAMDYWGQGTLVTVSS VL: QIVLTQSPAILSLSPGERATMSCTASSSVSSSYLHWYQQKPGKAPKLWIYSTSNLASGVPSRFSGSGSGTFYTLTISSLQAEDFATYYCHQYYRLPPITFGQGTKLEIK | 0.291 nM | 0.000319 s⁻¹ | 1.1e+06 M⁻¹ s⁻¹ | 0.228 nM | 0.000271 s⁻¹ | 1.19e+06 M⁻¹ s⁻¹

The remaining lines, values ahead:

Row | Kd [1] | koff [1] | kon [1] | Kd [2] | koff [2] | kon [2] | Binder
7 | 0.262 nM | 0.000263 s⁻¹ | 1.01e+06 M⁻¹ s⁻¹ | 0.262 nM | 0.000264 s⁻¹ | 1e+06 M⁻¹ s⁻¹ | VH4/Vk2 (antibody, V domains shown, member of group m7; also called VH4/Vκ2; VH variant 4 + Vk variant 2) VH: EVQLVESGGGLVKPGGSLRLSCAASGFTFSNYAMSWVRQAPGKGLEWVATISSGGSHTYYLDSVKGRFTISRDNSKNTLYLQMNSLRAEDTALYYCARLFTGYAMDYWGQGTLVTVSS VL: QIVLTQSPATLSLSPGERATMSCTASSSVSSSYLHWYQQKPGKAPKLWIYSTSNLASGVPSRFSGSGSGTDYTLTISSLQPEDFATYYCHQYYRLPPITFGQGTKLEIK
8 | 0.191 nM | 0.000198 s⁻¹ | 1.04e+06 M⁻¹ s⁻¹ | 0.235 nM | 0.000228 s⁻¹ | 973000 M⁻¹ s⁻¹ | VH1/Vk1 (antibody, V domains shown, member of group m7; also called VH1/Vκ1; VH variant 1 + Vk variant 1) VH: EVMLVESGGGLVKPGGSLRLSCAASGFTFSNYAMSWVRQAPGKGLEWVATISSGGSHTYYLDSVKGRFTISRDNSKDTLYLQMSSLRAEDTALYYCARLFTGYAMDYWGQGTSVTVSS VL: QIVLTQSPAILSLSPGERATMSCTASSSVSSSYLHWYQQKPGKAPKLWIYSTSNLASGVPSRFSGSGSGTFYTLTISSLQAEDFATYYCHQYYRLPPITFGQGTKLEIK
9 | 0.252 nM | 0.000255 s⁻¹ | 1.02e+06 M⁻¹ s⁻¹ | 0.246 nM | 0.000254 s⁻¹ | 1.03e+06 M⁻¹ s⁻¹ | VH3/Vk1 (antibody, V domains shown, member of group m7; also called VH3/Vκ1; VH variant 3 + Vk variant 1) VH: EVMLVESGGGLVKPGGSLRLSCAASGFTFSNYAMSWVRQAPGKGLEWVATISSGGSHTYYLDSVKGRFTISRDNSKDTLYLQMSSLRAEDTALYYCARLFTGYAMDYWGQGTSVTVSS VL: QIVLTQSPAILSLSPGERATMSCTASSSVSSSYLHWYQQKPGKAPKLWIYSTSNLASGVPSRFSGSGSGTFYTLTISSLQAEDFATYYCHQYYRLPPITFGQGTKLEIK
10 | 0.278 nM | 0.000306 s⁻¹ | 1.1e+06 M⁻¹ s⁻¹ | 0.298 nM | 0.00031 s⁻¹ | 1.04e+06 M⁻¹ s⁻¹ | VH4/Vk3 (antibody, V domains shown, member of group m7; also called VH4/Vκ3; VH variant 4 + Vk variant 3) VH: EVQLVESGGGLVKPGGSLRLSCAASGFTFSNYAMSWVRQAPGKGLEWVATISSGGSHTYYLDSVKGRFTISRDNSKNTLYLQMNSLRAEDTALYYCARLFTGYAMDYWGQGTLVTVSS VL: QIVLTQSPATLSLSPGERATLSCTASSSVSSSYLHWYQQKPGKAPKLWIYSTSNLASGVPSRFSGSGSGTDYTLTISSLQPEDFATYYCHQYYRLPPITFGQGTKLEIK
11 | 0.271 nM | 0.000269 s⁻¹ | 993000 M⁻¹ s⁻¹ | 0.273 nM | 0.00028 s⁻¹ | 1.03e+06 M⁻¹ s⁻¹ | VH2/Vk2 (antibody, V domains shown, member of group m7; also called VH2/Vκ2; VH variant 2 + Vk variant 2) VH: EVMLVESGGGLVKPGGSLRLSCAASGFTFSNYAMSWVRQAPGKGLEWVATISSGGSHTYYLDSVKGRFTISRDNSKDTLYLQMNSLRAEDTALYYCARLFTGYAMDYWGQGTLVTVSS VL: QIVLTQSPATLSLSPGERATMSCTASSSVSSSYLHWYQQKPGKAPKLWIYSTSNLASGVPSRFSGSGSGTDYTLTISSLQPEDFATYYCHQYYRLPPITFGQGTKLEIK
12 | 0.252 nM | 0.000262 s⁻¹ | 1.04e+06 M⁻¹ s⁻¹ | 0.256 nM | 0.000274 s⁻¹ | 1.07e+06 M⁻¹ s⁻¹ | VH2/Vk1 (antibody, V domains shown, member of group m7; also called VH2/Vκ1; VH variant 2 + Vk variant 1) VH: EVMLVESGGGLVKPGGSLRLSCAASGFTFSNYAMSWVRQAPGKGLEWVATISSGGSHTYYLDSVKGRFTISRDNSKDTLYLQMNSLRAEDTALYYCARLFTGYAMDYWGQGTLVTVSS VL: QIVLTQSPAILSLSPGERATMSCTASSSVSSSYLHWYQQKPGKAPKLWIYSTSNLASGVPSRFSGSGSGTFYTLTISSLQAEDFATYYCHQYYRLPPITFGQGTKLEIK
